We go through one molecule from publication doi:10.1101/2020.02.12.946020.

In this data set the target is hMutLγ (MLH1-MLH3) (human, UniProt P40692;Q9UHC1 1-756;1-1453). Description: EMSA. A general note: Mobility shift assays separate free from complexed probe on a gel.
Sequence of hMutLγ (MLH1-MLH3) (P40692 whole entry, chain 1 of 2): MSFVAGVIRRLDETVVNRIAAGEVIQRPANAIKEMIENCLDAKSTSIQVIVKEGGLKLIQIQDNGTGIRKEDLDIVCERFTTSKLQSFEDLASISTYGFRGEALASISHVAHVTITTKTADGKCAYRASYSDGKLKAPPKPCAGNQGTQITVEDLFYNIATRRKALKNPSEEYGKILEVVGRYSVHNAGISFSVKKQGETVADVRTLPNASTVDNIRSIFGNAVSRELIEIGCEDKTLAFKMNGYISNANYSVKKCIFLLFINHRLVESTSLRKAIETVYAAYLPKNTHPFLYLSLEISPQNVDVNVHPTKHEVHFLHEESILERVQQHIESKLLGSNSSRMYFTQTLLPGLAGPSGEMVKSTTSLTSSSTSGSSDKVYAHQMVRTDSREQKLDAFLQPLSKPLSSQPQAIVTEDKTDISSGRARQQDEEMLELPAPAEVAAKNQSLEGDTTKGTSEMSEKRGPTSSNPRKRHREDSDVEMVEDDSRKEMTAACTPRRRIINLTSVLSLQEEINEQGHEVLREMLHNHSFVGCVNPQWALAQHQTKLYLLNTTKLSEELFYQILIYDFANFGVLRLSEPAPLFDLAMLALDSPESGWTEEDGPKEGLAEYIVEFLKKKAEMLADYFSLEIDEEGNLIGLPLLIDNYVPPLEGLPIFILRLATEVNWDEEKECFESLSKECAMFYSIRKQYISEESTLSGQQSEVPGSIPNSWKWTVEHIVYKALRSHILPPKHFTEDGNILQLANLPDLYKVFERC
Sequence of hMutLγ (MLH1-MLH3) (Q9UHC1 whole entry, chain 2 of 2): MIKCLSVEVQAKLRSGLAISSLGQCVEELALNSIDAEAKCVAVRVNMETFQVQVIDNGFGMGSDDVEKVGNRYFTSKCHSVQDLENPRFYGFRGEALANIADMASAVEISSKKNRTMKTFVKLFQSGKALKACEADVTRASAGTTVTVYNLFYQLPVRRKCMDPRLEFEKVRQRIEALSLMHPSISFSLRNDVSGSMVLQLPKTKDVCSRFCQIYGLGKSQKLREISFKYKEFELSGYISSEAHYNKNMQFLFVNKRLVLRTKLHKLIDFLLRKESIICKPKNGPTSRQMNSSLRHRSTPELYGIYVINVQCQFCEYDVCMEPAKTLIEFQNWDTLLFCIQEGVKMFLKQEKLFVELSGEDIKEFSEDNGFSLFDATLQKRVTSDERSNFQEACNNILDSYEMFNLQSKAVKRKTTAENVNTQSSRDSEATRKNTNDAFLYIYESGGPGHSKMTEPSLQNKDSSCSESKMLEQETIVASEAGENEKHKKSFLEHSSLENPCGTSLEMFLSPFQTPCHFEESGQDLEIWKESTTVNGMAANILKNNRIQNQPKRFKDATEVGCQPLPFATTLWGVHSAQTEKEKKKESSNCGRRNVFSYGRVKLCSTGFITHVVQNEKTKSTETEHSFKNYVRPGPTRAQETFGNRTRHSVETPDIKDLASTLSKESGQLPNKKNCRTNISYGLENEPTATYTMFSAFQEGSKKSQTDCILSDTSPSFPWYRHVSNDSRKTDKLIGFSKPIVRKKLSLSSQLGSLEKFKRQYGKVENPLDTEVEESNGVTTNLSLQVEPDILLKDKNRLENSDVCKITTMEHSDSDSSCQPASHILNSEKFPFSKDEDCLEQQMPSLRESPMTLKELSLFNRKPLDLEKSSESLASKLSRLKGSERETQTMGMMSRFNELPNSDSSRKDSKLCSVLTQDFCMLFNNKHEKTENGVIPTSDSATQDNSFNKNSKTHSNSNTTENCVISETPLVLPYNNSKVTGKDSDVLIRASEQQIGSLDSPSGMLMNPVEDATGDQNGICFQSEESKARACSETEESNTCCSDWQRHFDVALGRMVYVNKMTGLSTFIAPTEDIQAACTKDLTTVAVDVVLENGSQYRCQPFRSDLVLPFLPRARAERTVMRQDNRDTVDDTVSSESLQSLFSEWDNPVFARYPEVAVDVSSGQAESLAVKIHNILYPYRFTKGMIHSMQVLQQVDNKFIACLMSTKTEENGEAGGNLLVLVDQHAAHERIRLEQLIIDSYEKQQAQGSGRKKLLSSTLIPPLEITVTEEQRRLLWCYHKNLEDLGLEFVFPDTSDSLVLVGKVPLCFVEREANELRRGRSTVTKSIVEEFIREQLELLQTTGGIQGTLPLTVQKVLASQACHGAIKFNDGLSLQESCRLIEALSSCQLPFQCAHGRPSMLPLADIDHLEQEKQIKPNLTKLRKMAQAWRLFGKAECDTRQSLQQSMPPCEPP

B1: 40 nt poly-dT ssDNA (dT40) (ssDNA)
DNA: TTTTTTTTTTTTTTTTTTTTTTTTTTTTTTTTTTTTTTTT
Take B1: the binding result was “binds”.
